Assay results from PMC13626733, “Molecular basis of high-torque transmission of the Vibrio polar flagellar motor” (Protein & Cell, 2026).

Legend:
Assay in all cases: cryo-EM structure; polar flagellar motor-hook complex purified as a whole from V. alginolyticus KK148 ΔflgL; local refinements of the LPHT ring, hook, rod, export apparatus and MS ring; LPHT ring particles also obtained by disassembling the complex at reduced salt
[1] = target: FlgH (Vibrio alginolyticus (endogenous in strain KK148 ΔflgL))
[2] = target: FlgI (Vibrio alginolyticus (endogenous in strain KK148 ΔflgL))
[3] = target: FlgT (Vibrio alginolyticus (endogenous in strain KK148 ΔflgL))
[4] = target: the molecule itself

Molecule: FlgH (natural protein)
- stoichiometry N [1]: 26

Molecule: FlgI (natural protein)
- stoichiometry N [2]: 26

Molecule: FlgT (natural protein)
- stoichiometry N [3]: 26

B1: FliF (natural protein, UniProt Q75N27 1-580, looked up)
chain: MADKSTDLTVTEGGSDGALVASSDVDVESQNPDLEERSASKFDMAVGDLDLLRQVVLVLSISICVALIVMLFFWVKEPEMRPLGAYETEELIPVLDYLDQQKINYKLDGNTISVESSEYNSIKLGMVRSGVNQATEAGDDILLQDMGFGVSQRLEQERLKLSRERQLAQAIEEMKQVRKARVLLALPKHSVFVRHNQEASASVFLTLSTGTNLKQQEVDSIVDMVASAVPGMKTSRITVTDQHGRLLSSGSQDPASAARRKEQELERSQEQALREKIDSVLLPILGYGNYTAQVDIQMDFSAVEQTRKRFDPNTPATRSEYALEDYNNGNMVAGIPGALSNQPPADASIPQDVAQMKDGSVMGQGSVRKESTRNFELDTTISHERKQTGTVARQTVSVAIKDRRQVNPDTGEVTYTPMSESEINAIRQVLIGTVGFDQGRGDLLNVLSVKFAEPEAEQLEEPPIWEHPNFSDWVRWFASALVIIVVVLVLVRPAMKKLLNPTSDDEDEMYGPDGLPIGADGETSLIGSDIESSELFEFGSSIDLPNLHKDEDVLKAVRALVANEPELAAQVVKNWMNDNG
notes: FliF, MS ring subunit of the polar flagellar motor, Vibrio alginolyticus; domains RBM2, RBM3, β-collar; extended peptide loops LA, LB, LC; 34 subunits form the MS ring; 23 RBM2 domains seen in the RBM2 subring; also called MS ring protein; FliF peptide loops LA, LB, LC; source: endogenous, purified within the polar flagellar motor-hook complex from V. alginolyticus KK148 ΔflgL
- stoichiometry N [4]: 34
